In PMC4592971:

Biological target: full length RhoA (Q63L) as it stands in the constitutively GTP-loaded DORA-RhoA biosensor (UniProt P61586)
Assay: FRET or BRET; FRET inside the single-chain DORA-RhoA biosensor (CFP on RhoA, YFP on the PKN1 domain) in living HeLa cells; single cell emission spectra and frequency domain FLIM of the donor (75.1 MHz)

Chain of UniProt P61586 (P61586 whole entry Q63L, the tested form may be a part): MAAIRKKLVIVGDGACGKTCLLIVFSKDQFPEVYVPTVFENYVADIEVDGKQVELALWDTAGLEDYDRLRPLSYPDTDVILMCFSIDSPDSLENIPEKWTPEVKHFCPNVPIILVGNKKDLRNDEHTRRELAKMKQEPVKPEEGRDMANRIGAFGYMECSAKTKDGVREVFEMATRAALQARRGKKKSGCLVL

median donor fluorescence lifetime (FLIM): 2.4 ns
Substance: Rho binding domain of PKN1 (cpPKN) as it stands in the DORA-RhoA biosensor (domain or fragment)
